Molecular target: T1, ectodomain of human CD4 (26-396 amino acid residues), recombinant (human, UniProt P01730 26-396)
T1 construct: CD4, human, ectodomain, residues 26-396; Cloned into pfastbac1 with the GP64 signal peptide for secretion and a preScission protease site; also called recombinant CD4; CD4 protein
Test: ELISA; 5 μg salivary gland protein coated overnight at 4°C on high binding 96-well plates, blocked with 1% BSA in PBST; 1 μg CD4 or DC-SIGN ectodomain added at 37°C for 1 h; detected with rabbit anti-CD4 or HRP anti-DC-SIGN monoclonal antibody, TMB, read at 450 nm
Conditions: both partners purified

B1: recombinant Ae. aegypti venom allergen 1 (AaVA-1) (natural protein, Aedes aegypti, UniProt A0A1S4EWW7 22-255, looked up)
chain: NYCDQSLCRRGPHVACNAPTQFGSACGQEPKFVKMDARMKNLLLKKHNELRAEIACGKHGFPQAARMPTLVWDDELAHIASFNARKCIFAHDKCRNTREFKFAGQNLAITAFAGYNFQAADRAENFTQEWFNEHKDCPKSYVDSYPMSHSGPQIGHFTQMVNDRAWKMGCSMVHYKNGRVIKYYLVCNYSMTNMIEEPIYTRGSAGSKCQTGQNPQYRGLCSPREKVRSESYRG
notes: Made with the GP64 signal peptide, so its own signal peptide was probably left out; also called AVAa-1
Does B1 bind?
Result: binds

Source: article PMC9484696, “Identification of Aedes aegypti salivary gland proteins interacting with human immune receptor proteins” (PLoS Neglected Tropical Diseases, 2022)
